Results on six molecules are retold here after patent US6946255 (KO OKUMURA, dated 2005).

The chains are these.
B6: soluble human Fas ligand molecule (ligand, UniProt P48023 130-281, looked up)
chain: QIGHPSPPPEKKELRKVAHLTGKSNSRSMPLEWEDTYGIVLLSGVKYKKGGLVINETGLYFVYSKVYFRGQSCNNLPLSHKVYMRNSKYPQDLVMMEGKMMSYCTTGQMWARSSYLGAVFNLTSADHLYVNVSELSLVNFEESQTFFGLYKL

The target in experiment [1] is B6. In words: cell-based or functional assay.
Experiment [2] deals with T1, 10-mer peptide consisting of residues 5 to 14 of SEQ ID NO: 31 (immobilized on the tip of a Pepset pin).
T1 construct: One of 44 overlapping 10-mer peptides of the extracellular domain of the Fas ligand
T1 peptide: VYMRNSKYPQ
In words: Pepset pin ELISA, HRP-labeled anti-mouse IgG. The method, then:
(§1) ⑨ After the pin of the Pepset was taken out of the well of the plate, 2N H_2SO_4 was added in an amount of 50 μl to each well to stop the reaction.
Background: ELISA stands for enzyme-linked immunosorbent assay.

The target of experiment [3] is T2, 10-mer peptide consisting of residues 1 to 10 of SEQ ID NO: 31 (immobilized on the tip of a Pepset pin).
T2 construct: One of 44 overlapping 10-mer peptides of the extracellular domain of the Fas ligand
T2 peptide: LSHKVYMRNS
Description: Pepset pin ELISA, HRP-labeled anti-mouse IgG. The method, then: as §1

For experiment [4], the target named is T3, monkey Fas ligand on activated rhesus monkey peripheral blood mononuclear cell surfaces (rhesus monkey, UniProt P63307 1-280).
T3 construct: whole, on cells; also called Fas ligand on monkey cell surfaces
T3 sequence (looked up): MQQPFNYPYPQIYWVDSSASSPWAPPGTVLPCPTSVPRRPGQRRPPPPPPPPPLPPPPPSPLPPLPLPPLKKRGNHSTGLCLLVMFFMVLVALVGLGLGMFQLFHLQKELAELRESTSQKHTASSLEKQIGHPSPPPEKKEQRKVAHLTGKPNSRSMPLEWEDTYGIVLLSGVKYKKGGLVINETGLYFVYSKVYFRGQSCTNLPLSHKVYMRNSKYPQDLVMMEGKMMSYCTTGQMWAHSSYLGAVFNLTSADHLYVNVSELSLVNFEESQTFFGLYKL
Description: flow cytometry (FACScan) on activated rhesus monkey PBMC, 1 µg antibody, PE-anti-mouse Ig's. The method, then: Five milliliters of peripheral blood were collected from a rhesus monkey using a heparinized syringe. After the blood was diluted to ½ with PBS, its lymphocyte fraction was recovered by the specific gravity centrifugation using Separate L. These monkey peripheral blood mononuclear lymphocytes were cultured for 2 days in a 10% FCS•RPMI 1640 medium containing 10 μg/ml of Con A to activate them. Thereafter, the cells were recovered by centrifugation, and then cultured further for a week in a 10% FCS•RPMI 1640 medium containing 50 units/ml of human IL-2 (interleukin-2). After a week, PMA and ionomycin were added to give concentrations of 10 ng/ml and 500 ng/ml, respectively, to activate the cells further for 4 hours. At this time, BB94 (matrix protease inhibitor) was added in a proportion of 10 μM at the same time. The Fas ligand was expressed in a large amount on the lymphocytes by these activation processes. After 4 hours, the cell were collected to analyze them by flow cytometry. After collecting the cells, the number of cells was first counted to adjust the cells to 1 ×10^6 cells/ml with PBS. Thereafter, the cells were placed in portions of 1 ml into tubes (Farcon No-2008), and 100 μl of control PBS, 1 μg of NOK1 antibody (100 μl of one diluted to a concentration of 10 μg/ml with PBS), 1 μg of monoclonal antibody NOK2 (similarly, 100 μl at a concentration of 10 μg/ml) and 1 μg of monoclonal antibody NOK3 (similarly, 100 μl at a concentration of […]) were separately placed in the tubes, thereby conducting a reaction for 30 minutes on an ice bath.
After the respective cultures were centrifugally washed twice with PBS. 1 µl of PE-anti-mouse Ig's were placed in the tubes to conduct a reaction further for 30 minutes on the ice bath. After the cultures were washed with PBS and separately suspended in 200 µl of PBS, they were analyzed by FACScan.
For orientation: A flow cytometer gives signals particle by particle.

Experiment [5] addresses T4, human Fas expressed on WR19L cells (human, UniProt P25445 26-335).
T4 sequence (looked up): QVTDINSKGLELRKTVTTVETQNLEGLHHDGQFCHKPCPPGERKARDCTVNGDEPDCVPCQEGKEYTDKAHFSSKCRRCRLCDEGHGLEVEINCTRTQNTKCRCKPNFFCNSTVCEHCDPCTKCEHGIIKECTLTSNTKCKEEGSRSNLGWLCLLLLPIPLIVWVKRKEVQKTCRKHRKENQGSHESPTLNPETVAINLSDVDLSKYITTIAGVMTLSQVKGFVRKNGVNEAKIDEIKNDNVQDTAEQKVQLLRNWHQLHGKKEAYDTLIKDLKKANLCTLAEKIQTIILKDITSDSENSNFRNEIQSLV
In words: cell-based or functional assay.

B1: monoclonal antibody NOK5 (produced by Hybridoma NOK5, FERM BP-5048) (antibody, V domains shown)
VH: VQLQESGAEPAKPGASVKMSCKASGYTFTTYWMHWVKQRPGQGLEWIGYINPSSGYTEYNQKFKDKATLTADKSSSTAYMQLISLTSEDSAVYYCARRGNYYYFDYWGQGTTVTVSS
VL: DVLMTQTPKFLPVSAGDRVTMTCKASQSVGNNVAWYQQKPGQSPKLLIYYTSNRYTGVPDRFTGSGSGTDFTFTISSVQVEDLAVYFCQQHYSSPYTFGSGTKLE
Consider B1, for which the Survival rate in experiment [1] was 98.2%.

B2: monoclonal antibody NOK4 (produced by Hybridoma NOK4, FERM BP-5047) (antibody, V domains shown)
VH: VQLQESGPGLVKPSQSLSLTCSVTGYSITSGYYWNWIRQFPGNKLEWMGYISYDGSNNYNPSLKNRISITRDTSKNQFFLKLNSVTTEDTATYYCAVYYYDGSSFDYWGQGTTVTVSS
VL: DIVLTQSPASLAVSLRQRATISCRASEGVDSYGISFMHWYQQKPGQPPKLLIYRASYLKSGVPARFSGSGSRTDFTLTIDPVEADDAATYYCQQNNEDPWTFGGGTKLEIKR
The molecule B2 registered a Survival rate in experiment [1] of 110%.

B3: monoclonal antibody NOK2 (produced by Hybridoma NOK2, FERM BP-5045) (antibody, V domains shown)
VH: VQLQQSGAELVRPGTSVKMSCKAAGYTFTNYWIGWVKQRPGHGLEWIGYLYPGGLYTNYNEKFKGKATLTADTSSSTAYMQLSSLTSEDSAIYYCARYRDYDYAMDYWGQGTTVTVSS
VL: DVLMTQTPLSLPVNIGDQASISCKSTKSLLNSDGFTYLGWCLQKPGQSPQLLIYLVSNRFSGVPDRFSGSGSGTDFTLKISRVEAEDLGVYYCFQSNYLPLTFGSGTKLEIKR
notes: also called NOK2 antibody
With B3, the binding result in experiment [2], in experiment [3] and in experiment [4] was “binds” throughout. The molecule further showed a Survival rate in experiment [1] of 105%.

B4: monoclonal antibody NOK1 (produced by Hybridoma NOK1, FERM BP-5044) (antibody, V domains shown)
VH: VQLQESGPELVKPGASVKISCKASGYAFSSSWMNWVKQRPGKGLEWIGRIYPGDGDTNDNGKFKGKATLTADKSSSTAYMQLSSLTSEDSAVYFCARSYYYDGSPWFTYWGQGTTVTVSS
VL: DIQMTQSPSSLSASLGDRVTISCRASQDISNYLNWYQQKPDGTVKLLIYYTSRLHSGVPSRFSGSGSGTDYSLTISNLEPEDIATYFCQQYSEFPWTFGGGTKLEIKR
notes: Used as hybridoma culture supernatant, as antibody purified from ascites, biotin-labelled, or coupled to Sepharose beads; also called NOK1 antibody; biotinized monoclonal antibody NOK1
Regarding B4, in experiment [4], the binding result is listed as “binds”. In addition, the Survival rate in experiment [1] is 99.3%.

B5: monoclonal antibody NOK3 (produced by Hybridoma NOK3, FERM BP-5046) (antibody, V domains shown)
VH: VKLQESGPELVKPGASVKISCKASGYAFSSSWMNWVKQRPGKGLEWIGRIYPVNGDTNYNGKFKGKATLTADKSSSTAYMQLSSLTSEDSAVYFCATDGYWYFDVWGQGTTVTVSS
VL: NIVMTQSPKSMSMSVGERVTLSCKASENVDIYVSWYQQKPEQSPKLLIYGTSNRYTGVPDRFTGSGSATDFTLTISNVQAEDLSDYYCVQSYSYPWTFGGGTKLEIKR
notes: also called NOK3 antibody
Consider B5, for which, in experiment [4], the binding result was “binds”. Also, the Survival rate in experiment [1] worked out at 101%.
Turning to B6, the Survival rate in experiment [5] is 3.5%.
